One assay deals with IL-23 binding to IL-23R. Nature of the assay: Competition SPR: IL-23 binding to captured IL-23R-Fc-AVI in the presence of peptide. The conditions noted are these: concentration tested 0.1 μM; 20 nM IL-23, IL-23R-Fc-AVI on Protein-A, 30 s injection, 1% BSA buffer; n = 1. The method, then:
SPR (Biacore T200, GE Healthcare) was used to determine binding constants of the peptides against IL-23 and their competitiveness to IL-23R. All SPR experiments were performed at 25°C with flow rate of 50 μl/min. Assay buffer used in direct binding experiment was 10 mM HEPES pH 7.5, 150 mM NaCl, 0.005% P20, and 3% DMSO. Assay buffer used in competition experiment was 10 mM HEPES pH 7.5, 150 mM NaCl, 0.005% P20, and 1% BSA. All peptides were reconstituted first in DMSO as 10 mM stocks and then diluted into assay buffer. The proteins used in direct binding and competition SPR are described in S1 Table in S1 File. For direct binding of peptides against IL-23, 2000–9000 RU of IL-23-AVI was captured to streptavidin sensor chips (GE Healthcare, Series S Sensor Chip SA, BR-1005-31). Dilution series with 3-fold increment were prepared for each peptide. Initially, all peptides were tested up to 30 μM. […] IL-23 at 20 nM without peptide, “IL-23 only”, was used as control to quantify IL-23 binding without blockage; while “cold” IL-23R was used as a positive control for blockage.
The design of competition SPR was based on a knockdown assay (Fig 5A). […] Response levels of IL-23 plus peptide were measured post injection (Fig 5B) to avoid possible bulk RI difference between analyte and running buffer. […]

For a further assay, the target named is T1, IL-23 (Homo sapiens, UniProt P29460+Q9NPF7).
T1 construct: made in house
T1 sequence (Q9NPF7 20-189): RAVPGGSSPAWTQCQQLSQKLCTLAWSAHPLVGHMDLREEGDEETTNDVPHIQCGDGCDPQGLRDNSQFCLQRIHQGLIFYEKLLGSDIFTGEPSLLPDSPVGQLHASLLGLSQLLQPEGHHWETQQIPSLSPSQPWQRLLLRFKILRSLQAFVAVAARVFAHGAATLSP
T1 sequence (P29460 23-328): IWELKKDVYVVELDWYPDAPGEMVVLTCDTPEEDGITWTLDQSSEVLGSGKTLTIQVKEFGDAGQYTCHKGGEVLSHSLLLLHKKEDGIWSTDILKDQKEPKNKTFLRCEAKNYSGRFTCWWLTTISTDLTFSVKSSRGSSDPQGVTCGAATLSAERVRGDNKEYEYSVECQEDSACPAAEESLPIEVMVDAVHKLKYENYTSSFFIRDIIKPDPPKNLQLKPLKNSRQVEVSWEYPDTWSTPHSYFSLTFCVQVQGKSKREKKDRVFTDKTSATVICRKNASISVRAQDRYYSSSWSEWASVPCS
Description: SPR direct binding to captured IL-23-AVI (Biacore T200). The settings on record: IL-23-AVI captured on streptavidin chip, 25°C, 1:1 binding model, n = 1, 23–447 an estimate. The method, then: SPR (Biacore T200, GE Healthcare) was used to determine binding constants of the peptides against IL-23 and their competitiveness to IL-23R. All SPR experiments were performed at 25°C with flow rate of 50 μl/min. Assay buffer used in direct binding experiment was 10 mM HEPES pH 7.5, 150 mM NaCl, 0.005% P20, and 3% DMSO. Assay buffer used in competition experiment was 10 mM HEPES pH 7.5, 150 mM NaCl, 0.005% P20, and 1% BSA. All peptides were reconstituted first in DMSO as 10 mM stocks and then diluted into assay buffer. The proteins used in direct binding and competition SPR are described in S1 Table in S1 File. For direct binding of peptides against IL-23, 2000–9000 RU of IL-23-AVI was captured to streptavidin sensor chips (GE Healthcare, Series S Sensor Chip SA, BR-1005-31). Dilution series with 3-fold increment were prepared for each peptide. Initially, all peptides were tested up to 30 μM. Concentration range for some were then lowered accordingly based on affinity or nuisance behavior at high concentrations. SPR “multi-cycle” type was used for peptides 23–644, 23–437, 23–441, 23–446, and 23–447. Each cycle consisted of 30s of analyte injection and then 60s of buffer flow to monitor dissociation. “Single cycle kinetics” (SCK) type was used for 23–652 due to their long dissociation half-lives. Each SCK cycle consisted of five 60s injections of sample in increasing concentration with a final 600s of dissociation. To study IL-23 and IL-23R interaction, 200–1000 RU of IL-23-AVI and IL-23R-Fc-AVI were captured to streptavidin sensor chip. Dilution series with 3-fold increment of IL-23R-FLAG-HIS and IL-23-HIS were run in SCK cycle type as described above except the final dissociation time were 60-300s. Sensorgrams from the entire titration series for each sample were fitted globally to extract binding kinetics and affinity using Biacore T200 Evaluation Software 2.0 (GE Healthcare) according to a 1:1 binding model. To identify IL-23 binders that can block receptor binding, a competition SPR was established. In each SPR cycle, fresh IL-23R was capture (<1000 RU) by injecting 10 μg/ml of IL-23R-Fc-AVI to a Protein-A flow cell at 10 μl/min flow rate for 30s. Analyte consisted of a mixture of 20 nM of IL-23 protein and a single concentration of peptide was then injected for 30s at 50 μl/min to observe IL-23 binding. Finally, the Protein-A surface was regenerated by 10 mM Glycine pH 1.5 for 30s at 30 μl/min. IL-23 at 20 nM without peptide, “IL-23 only”, was used as control to quantify IL-23 binding without blockage; while “cold” IL-23R was used as a positive control for blockage.

B1: IL-23R: IL23R ECD (aa 1-353) with C-terminal Flag and HIS tags produced in HEK293 cells; positive control for blockage (protein)
chain: GITNINCSGHIWVEPATIFKMGMNISIYCQAAIKNCQPRKLHFYKNGIKERFQITRINKTTARLWYKNFLEPHASMYCTAECPKHFQETLICGKDISSGYPPDIPDEVTCVIYEYSGNMTCTWNAGKLTYIDTKYVVHVKSLETEEEQQYLTSSYINISTDSLQGGKKYLVWVQAANALGMEESKQLQIHLDDIVIPSAAVISRAETINATVPKTIIYWDSQTTIEKVSCEMRYKATTNQTWNVKEFDTNFTYVQQSEFYLEPNIKYVFQVRCQETGKRYWQPWSSLFFHKTPETVPQVTSKAFQHDTWNSGLTVASISTGHLTSDNRGDIGLLLGMIVFAVMLSILSLIGIFNRSFRTGIKRRILLLIPKWLYEDIPNMKNSNVVKMLQENSELMNNNSSEQVLYVDPMITEIKEIFIPEHKPTDYKKENTGPLETRDYPQNSLFDNTTVVYIPDLNTGYKPQISNFLPEGSHLSNNNEITSLTLKPPVDSLDSGNNPRLQKHPNFAFSVSSVNSLSNTIFLGELSLILNQGECSSPDIQNSVEEETTMLLENDSPSETIPEQTLLPDEFVSCLGIVNEELPSINTYFPQNILESHFNRISLLEK
modifications: fluorescent label (dye and site not stated)
For the molecule B1, in the assay on IL-23 binding to IL-23R, the “Competition SPR %Inhibition” value is reported as 98.0%. Besides, the kd with IL-23 is 0.00151 s⁻¹. The ka with IL-23 (50 μl/min, 10 mM HEPES pH 7.5, 150 mM NaCl, 0.005% P20, 3% DMSO, multi-cycle (single cycle kinetics for 23–652 and IL-23R)) is 170000 M⁻¹ s⁻¹.
